Data taken from the supplement of paper PMC9112550, “Optimization of the antimicrobial peptide Bac7 by deep mutational scanning” (BMC Biology, 2022).

Test system: Escherichia coli TOP10
Assay: shrunken log2 fold change of peptide-encoding DNA abundance (4.5 h post-induction vs induction); higher = less antimicrobial activity (less host growth inhibition)
Details: time post-induction: 4.5 h; library: site-saturation at positions 5, 18, 19, 20
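Note: peptides expressed intracellularly from a pBAD plasmid library in pooled LB shake-flask culture, induced with 0.3% L-arabinose, DNA abundance read by NGS, three biological replicates, DESeq2 with apeglm shrinkage.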

RRIRDRPPRLPRPRPRPPFDPRP
shrunken log2 fold change: 0.422

RRIRGRPPRLPRPRPRPTFGPRP
shrunken log2 fold change: 0.404

RRIRLRPPRLPRPRPRPGKSPRP
shrunken log2 fold change: -0.047

RRIRLRPPRLPRPRPRPWPWPRP
shrunken log2 fold change: 0.0352

RRIRNRPPRLPRPRPRPSCQPRP
shrunken log2 fold change: -0.185

RRIRNRPPRLPRPRPRPTICPRP
shrunken log2 fold change: -0.119

RRIRHRPPRLPRPRPRPLLMPRP
shrunken log2 fold change: -0.0151

RRIRIRPPRLPRPRPRPFYQPRP
shrunken log2 fold change: 0.234

RRIRPRPPRLPRPRPRPEREPRP
shrunken log2 fold change: 0.49

RRIRPRPPRLPRPRPRPWETPRP
shrunken log2 fold change: 0.124

RRIRFRPPRLPRPRPRPSWQPRP
shrunken log2 fold change: -0.149

RRIRFRPPRLPRPRPRPRYHPRP
shrunken log2 fold change: -0.295

RRIRMRPPRLPRPRPRPGHEPRP
shrunken log2 fold change: 0.086

RRIRARPPRLPRPRPRPQSEPRP
shrunken log2 fold change: 0.152

RRIRGRPPRLPRPRPRPLNYPRP
shrunken log2 fold change: 0.131

RRIRVRPPRLPRPRPRPDWPPRP
shrunken log2 fold change: 0.334

RRIRPRPPRLPRPRPRPNNDPRP
shrunken log2 fold change: -0.544

RRIRYRPPRLPRPRPRPANAPRP
shrunken log2 fold change: 0.00281

RRIRIRPPRLPRPRPRPDLLPRP
shrunken log2 fold change: -0.634

RRIRVRPPRLPRPRPRPWPYPRP
shrunken log2 fold change: -0.197

RRIRHRPPRLPRPRPRPLYRPRP
shrunken log2 fold change: -0.343

RRIRLRPPRLPRPRPRPQGNPRP
shrunken log2 fold change: -0.0463

RRIRIRPPRLPRPRPRPANEPRP
shrunken log2 fold change: 0.158

RRIRMRPPRLPRPRPRPMTQPRP
shrunken log2 fold change: 0.22

RRIRSRPPRLPRPRPRPNWFPRP
shrunken log2 fold change: -0.0702

RRIRGRPPRLPRPRPRPWDPPRP
shrunken log2 fold change: -0.11

RRIRVRPPRLPRPRPRPATCPRP
shrunken log2 fold change: -0.164

RRIRIRPPRLPRPRPRPFSGPRP
shrunken log2 fold change: -0.241

RRIRTRPPRLPRPRPRPYQTPRP
shrunken log2 fold change: -0.128

RRIRPRPPRLPRPRPRPGCKPRP
shrunken log2 fold change: 0.368

RRIRERPPRLPRPRPRPLEPPRP
shrunken log2 fold change: 0.0736

RRIRRRPPRLPRPRPRPWNYPRP
shrunken log2 fold change: -0.242

RRIRWRPPRLPRPRPRPTEQPRP
shrunken log2 fold change: 0.357

RRIRIRPPRLPRPRPRPWADPRP
shrunken log2 fold change: -0.435

RRIRMRPPRLPRPRPRPYKPPRP
shrunken log2 fold change: 0.0559

RRIRMRPPRLPRPRPRPEIHPRP
shrunken log2 fold change: 0.176

RRIRPRPPRLPRPRPRPHDQPRP
shrunken log2 fold change: 0.134

RRIRMRPPRLPRPRPRPSNNPRP
shrunken log2 fold change: -0.0389

RRIRARPPRLPRPRPRPVDPPRP
shrunken log2 fold change: 0.291

RRIRSRPPRLPRPRPRPDYPPRP
shrunken log2 fold change: -0.0733

RRIRARPPRLPRPRPRPRLYPRP
shrunken log2 fold change: 0.501

RRIRCRPPRLPRPRPRPMKLPRP
shrunken log2 fold change: -0.0356

RRIRWRPPRLPRPRPRPDPAPRP
shrunken log2 fold change: 0.663

RRIRARPPRLPRPRPRPCWPPRP
shrunken log2 fold change: 0.162

RRIRPRPPRLPRPRPRPPFDPRP
shrunken log2 fold change: 0.228

RRIRPRPPRLPRPRPRPLCHPRP
shrunken log2 fold change: -0.139

RRIRNRPPRLPRPRPRPLQMPRP
shrunken log2 fold change: -0.0999

RRIRGRPPRLPRPRPRPSIPPRP
shrunken log2 fold change: -0.137

RRIRYRPPRLPRPRPRPMHTPRP
shrunken log2 fold change: -0.254

RRIRWRPPRLPRPRPRPRHMPRP
shrunken log2 fold change: -0.139

RRIRDRPPRLPRPRPRPRDNPRP
shrunken log2 fold change: -0.339

RRIRGRPPRLPRPRPRPTAQPRP
shrunken log2 fold change: 1.35

RRIRCRPPRLPRPRPRPLKHPRP
shrunken log2 fold change: -0.584

RRIRTRPPRLPRPRPRPEDSPRP
shrunken log2 fold change: -0.0215

RRIRSRPPRLPRPRPRPKIPPRP
shrunken log2 fold change: 1.16

RRIRDRPPRLPRPRPRPYLRPRP
shrunken log2 fold change: -0.0137

RRIRSRPPRLPRPRPRPDEEPRP
shrunken log2 fold change: 0.895

RRIRVRPPRLPRPRPRPTNEPRP
shrunken log2 fold change: -0.0806

RRIRSRPPRLPRPRPRPPMMPRP
shrunken log2 fold change: 0.0697

RRIRKRPPRLPRPRPRPQWRPRP
shrunken log2 fold change: 0.309

RRIRFRPPRLPRPRPRPCRCPRP
shrunken log2 fold change: -0.735

RRIRWRPPRLPRPRPRPQAGPRP
shrunken log2 fold change: 0.335

RRIRVRPPRLPRPRPRPVCNPRP
shrunken log2 fold change: -0.0396

RRIRMRPPRLPRPRPRPQIQPRP
shrunken log2 fold change: -0.0708

RRIRQRPPRLPRPRPRPPVNPRP
shrunken log2 fold change: -0.0759

RRIRGRPPRLPRPRPRPVMNPRP
shrunken log2 fold change: 0.434

RRIRFRPPRLPRPRPRPPWEPRP
shrunken log2 fold change: 0.124

RRIRHRPPRLPRPRPRPKYPPRP
shrunken log2 fold change: 0.0718

RRIRARPPRLPRPRPRPASPPRP
shrunken log2 fold change: 0.499

RRIRRRPPRLPRPRPRPRPMPRP
shrunken log2 fold change: 0.76

RRIRCRPPRLPRPRPRPLRYPRP
shrunken log2 fold change: 0.246

RRIRDRPPRLPRPRPRPCGQPRP
shrunken log2 fold change: -0.0223

RRIRTRPPRLPRPRPRPCDAPRP
shrunken log2 fold change: 0.0216

RRIRPRPPRLPRPRPRPGGTPRP
shrunken log2 fold change: 0.269

RRIRIRPPRLPRPRPRPRNGPRP
shrunken log2 fold change: 0.103

RRIRPRPPRLPRPRPRPTYNPRP
shrunken log2 fold change: -0.664

RRIRWRPPRLPRPRPRPLRQPRP
shrunken log2 fold change: 0.539

RRIRHRPPRLPRPRPRPGKFPRP
shrunken log2 fold change: -0.175

RRIRQRPPRLPRPRPRPRANPRP
shrunken log2 fold change: 0.367

RRIRNRPPRLPRPRPRPERTPRP
shrunken log2 fold change: -0.00566

RRIRWRPPRLPRPRPRPSFGPRP
shrunken log2 fold change: -0.0482

RRIRVRPPRLPRPRPRPWPAPRP
shrunken log2 fold change: -0.0676

RRIRCRPPRLPRPRPRPRYYPRP
shrunken log2 fold change: -0.612

RRIRRRPPRLPRPRPRPWTEPRP
shrunken log2 fold change: 0.116

RRIRVRPPRLPRPRPRPVTHPRP
shrunken log2 fold change: -0.277

RRIRGRPPRLPRPRPRPKMQPRP
shrunken log2 fold change: 0.292

RRIRERPPRLPRPRPRPHTRPRP
shrunken log2 fold change: -0.0821

RRIRWRPPRLPRPRPRPAVHPRP
shrunken log2 fold change: 0.631

RRIRTRPPRLPRPRPRPNYCPRP
shrunken log2 fold change: -0.0491

RRIRQRPPRLPRPRPRPECLPRP
shrunken log2 fold change: -0.21

RRIRKRPPRLPRPRPRPTIPPRP
shrunken log2 fold change: 0.263

RRIRTRPPRLPRPRPRPTQRPRP
shrunken log2 fold change: 0.11

RRIRLRPPRLPRPRPRPHEHPRP
shrunken log2 fold change: -0.109

RRIRRRPPRLPRPRPRPQYKPRP
shrunken log2 fold change: -0.401

RRIRNRPPRLPRPRPRPKQQPRP
shrunken log2 fold change: 0.163

RRIRLRPPRLPRPRPRPPAMPRP
shrunken log2 fold change: 0.42

RRIRQRPPRLPRPRPRPWGHPRP
shrunken log2 fold change: -0.0609

RRIRPRPPRLPRPRPRPECPPRP
shrunken log2 fold change: 0.353

RRIRMRPPRLPRPRPRPIADPRP
shrunken log2 fold change: -0.00229

RRIRYRPPRLPRPRPRPNTVPRP
shrunken log2 fold change: -0.301

RRIRTRPPRLPRPRPRPRITPRP
shrunken log2 fold change: -0.474

RRIRHRPPRLPRPRPRPEWDPRP
shrunken log2 fold change: 0.00396

RRIRRRPPRLPRPRPRPWRIPRP
shrunken log2 fold change: 0.0818

RRIRVRPPRLPRPRPRPMMFPRP
shrunken log2 fold change: -0.0953

RRIRFRPPRLPRPRPRPDAWPRP
shrunken log2 fold change: 0.0823

RRIRKRPPRLPRPRPRPARKPRP
shrunken log2 fold change: -0.0215

RRIRGRPPRLPRPRPRPQMNPRP
shrunken log2 fold change: 0.355

RRIRYRPPRLPRPRPRPQSYPRP
shrunken log2 fold change: -0.0246

RRIRKRPPRLPRPRPRPAYDPRP
shrunken log2 fold change: -0.116
